{
  "source": "patent US7063946B2",
  "about": "“Methods, reagents, kits and apparatus for protein function analysis” (Meso Scale Technologies, LLC., priority 2001, dated 2006)",
  "molecules": {"B1": {"name": "4237375: IMAGE clone protein: βTRCP2 (protein)", "chain": "MEPDSVIEDKTIELMCSVPRSLWLGCANLVESMCALSCLQSMPSVRCLQISNGTSSVIVSRKRPSEGNYQKEKDLCIKYFDQWSESDQVEFVEHLISRMCHYQHGHINSYLKPMLQRDFITALPEQGLDHIAENILSYLDARSLCAAELVCKEWQRVISEGMLWKKLIERMVRTDPLWKGLSERRGWDQYLFKNRPTDGPPNSFYRSLYPKIIQDIETIESNWRCGRHNLQRIQCRSENSKGVYCLQYDDEKIISGLRDNSIKIWDKTSLECLKVLTGHTGSVLCLQYDERVIVTGSSDSTVRVWDVNTGEVLNTLIHHNEAVLHLRFSNGLMVTCSKDRSIAVWDMASATDITLRRVLVGHRAAVNVVDFDDKYIVSASGDRTIKVWSTSTCEFVRTLNGHKRGIACLQYRDRLVVSGSSDNTIRLWDIECGACLRVLEGHEELVRCIRFDNKRIVSGAYDGKIKVWDLQAALDPRAPASTLCLRTLVEHSGRVFRLQFDEFQIISSSHDDTILIWDFLNVPPSAQNETRSPSRTYTYISR"}, "B2": {"name": "4419252: IMAGE clone protein: PLCγ (protein)", "chain": "MAGAASPCANGCGPGAPSDAEVLHLCRSLEVGTVMTLFYSKKSQRPERKTFQVKLETRQITWSRGADKIEGAIDIREIKEIRPGKTSRDFDRYQEDPAFRPDQSHCFVILYGMEFRLKTLSLQATSEDEVNMWIKGLTWLMEDTLQAPTPLQIERWLRKQFYSVDRNREDRISAKDLKNMLSQVNYRVPNMRFLRERLTDLEQRSGDITYGQFAQLYRSLMYSAQKTMDLPFLEASTLRAGERPELCRVSLPEFQQFLLDYQGELWAVDRLQVQEFMLSFLRDPLREIEEPYFFLDEFVTFLFSKENSVWNSQLDAVCPDTMNNPLSHYWISSSHNTYLTGDQFSSESSLEAYARCLRMGCRCIELDCWDGPDGMPVIYHGHTLTTKIKFSDVLHTIKEHAFVASEYPVILSIEDHCSIAQQRNMAQYFKKVLGDTLLTKPVEISADGLPSPNQLKRKILIKHKKLAEGSAYEEVPTSMMYSENDISNSIKNGILYLEDPVNHEWYPHYFVLTSSKIYYSEETSSDQGNEDEEEPKEVSSSTELHSNEKWFHGKLGAGRDGRHIAERLLTEYCIETGAPDGSFLVRESETFVGDYTLSFWRNGKVQHCRIHSRQDAGTPKFFLTDNLVFDSLYDLITHYQQVPLRCNEFEMRLSEPVPQTNAHESKEWYHASLTRAQAEHMLMRVPRDGAFLVRKRNEPNSYAISFRAEGKIKHCRVQQEGQTVMLGNSEFDSLVDLISYYEKHPLYRKMKLRYPINEEALEKIGTAEPDYGALYEGRNPGFYVEANPMPTFKCAVKALFDYKAQREDELTFIKSAIIQNVEKQEGGWWRGDYGGKKQLWFPSNYVEEMVNPVALEPEREHLDENSPLGDLLRGVLDVPACQIAIRPEGKNNRLFVFSISMASVAHWSLDVAADSQEELQDWVKKIREVAQTADARLTEGKIMERRKKIALELSELVVYCRPVPFDEEKIGTERACYRDMSSFPETKAEKYVNKAKGKKFLQYNRLQLSRIYPKGQRLDSSNYDPLPMWICGSQLVALNFQTPDKPMQMNQALFMTGRHCGYVLQPSTMRDEAFDPFDKSSLRGLEPCAISIEVLGARHLPKNGRGIVCPFVEIEVAGAEYDSTKQKTEFVVDNGLNPVWPAKPFHFQISNPEFAFLRFVVYEEDMFSDQNFLAQATFPVKGLKTGYRAVPLKNNYSEDLELASLLIKIDIFPAKENGDLSPFSGTSLRERGSDASGQLFHGRAREGSFESRYQQPFEDFRISQEHLADHFDSRERRAPRRTRVNGDNRL"}},
  "key": {"IkBa-24pp (SEQ ID NO: 1)": {"target": "T1, IkBa-24pp (SEQ ID NO: 1) (Homo sapiens, UniProt P25963)", "T1 construct": "two phosphoserines in the DSGLDS motif (chemical modification); purchased New England Peptide, Fitchburg Mass; host or cells: chemical synthesis", "T1 sequence (P25963 with tags, fused parts or gaps limits assumed)": "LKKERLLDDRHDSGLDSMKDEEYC", "test": "Single-well 4-spot assay for multiple peptide-protein interactions", "assay_type": "binding", "from_the_text": "Four phosphopeptides and their cognate binding proteins (Table 14) were selected for an integrated assay of multiple peptide-protein interaction in 4-spot Multi-Array plates. The IkBa-24pp peptide and its binding protein, βTRCP, are described in Example 10. The remaining peptides are derived from the carboxyl terminus of the EGF receptor. These phosphotyrosine containing peptides are recognized by different adaptor or effecter proteins of the receptor tyrosine kinase signaling pathway.\nThese four peptides were coupled to BSA carrier protein through cystine residue. After purification on PD-10 gel filtration columns, the peptide-BSA conjugates were then deposited on the assay domains of a 4-spot multi-array IPR plate (i.e., in one of the four exposed regions of working electrode defined by the dielectric layer) with an automated micro-dispensing system (Bio-Dot Dispenser, Bio-Dot, Irvine Calif.). Typically about 120 fmole of peptide:BSA conjugate in 0.25 μl was deposited on each spot of a 4-spot multi-array IPR plate. These plates are dried then used or stored under desiccated conditions. […] Thus, in this assay format, each peptide not only serves as the capture agent for assaying specific interaction with its binding protein, but also at the same time serves as a control for other peptide-protein interaction to be determined in the same well. […]"}, "[1]": {"target": "T2, EGFR-pY1068 (SEQ ID NO: 7) (Homo sapiens, UniProt P00533)", "T2 construct": "phosphotyrosine at Tyr1068 (chemical modification); purchased New England Peptide, Fitchburg Mass; host or cells: chemical synthesis", "test": "Single-well 4-spot assay for multiple peptide-protein interactions", "assay_type": "binding", "settings": "4-spot plate", "from_the_text": "(§1) Four phosphopeptides and their cognate binding proteins (Table 14) were selected for an integrated assay of multiple peptide-protein interaction in 4-spot Multi-Array plates. The IkBa-24pp peptide and its binding protein, βTRCP, are described in Example 10. […] These phosphotyrosine containing peptides are recognized by different adaptor or effecter proteins of the receptor tyrosine kinase signaling pathway.\n(§2) These four peptides were coupled to BSA carrier protein through cystine residue. After purification on PD-10 gel filtration columns, the peptide-BSA conjugates were then deposited on the assay domains of a 4-spot multi-array IPR plate (i.e., in one of the four exposed regions of working electrode defined by the dielectric layer) with an automated micro-dispensing system (Bio-Dot Dispenser, Bio-Dot, Irvine Calif.). […] These plates are dried then used or stored under desiccated conditions. A few hours prior to usage the plates were rehydrated and blocked with 3% BSA in PBS. […] The in vitro translated and biotin-labeled proteins were then assayed in the 4-spot multi-array IPR plates under conditions described in Example 10."}, "[2]": {"target": "T3, EGFR-pY1148 (SEQ ID NO: 9) (Homo sapiens, UniProt P00533)", "T3 construct": "phosphotyrosine at Tyr1148 (chemical modification); purchased New England Peptide, Fitchburg Mass; host or cells: chemical synthesis", "test": "Single-well 4-spot assay for multiple peptide-protein interactions", "assay_type": "binding", "settings": "4-spot plate", "from_the_text": "as §1, §2"}, "[3]": {"system": "pooled phosphopeptide:BSA conjugates (Pools A-D)", "test": "Coded multiplex phosphopeptide binding assay with pooled peptide:BSA conjugates on 4 spots", "settings": "for ECL signal, spot A: Pool A, EGFR-pTyr1148, IkBa-24ppC, Myc-p58Tp62S; for ECL signal, spot B: Pool B, EGFR-pTyr992, EGFR-pTyr1148, Smad3C; for ECL signal, spot C: Pool C, EGFR-pTyr1068, IkBa-24ppC, Smad3C; for ECL signal, spot D: Pool D, EGFR-pTyr992, EGFR-pTyr1068, Myc-p58Tp62S", "from_the_text": "To prepare the Multi-Spot IPR plates, in this example we made use of pools of the peptide:BSA conjugates to coat each of 4 spots per well in a 96 well plate. To achieve this we made the following pools; • Pool A; EGFR-pTyr1148, IkBa-24ppC, Myc-p58Tp62S. • Pool B; EGFR-pTyr992, EGFR-pTyr1148, Smad3C. • Pool C; EGFR-pTyr1068, IkBa-24ppC, Smad3C. • Pool D; EGFR-pTyr992, EGFR-pTyr1068, Myc-p58Tp62S.\nThis combination of the various peptides results in any single peptide being present in two pools. Each of these four pools is then spotted on to a unique spot in a 4 spot array. In this way any single binding protein with specificity for only one of the peptides would bind to two spots; the identity of the two spots would allow the identification of the peptide involved in the binding reaction.\nTypically approximately 120 fmole of peptide:BSA conjugate in 0.25 μl was deposited on each spot of a 4-spot multi-array IPR plates using a BioDot Dispenser (Bio-Dot Inc., vIrvine Calif.). At this stage, the plates were dried then used or stored under desiccated condition. A few hours prior to usage, the plates were rehydrated and blocked with 3% BSA, in PBS.\nTo test the system the following EST clones IMAGE # 3491843, 4237375, 4398016, 4419252, 3872466, 3907115 were obtained. These clones express the following genes βTRCP1, βTRCP2, Grb2, PLCγ, CBP and Shc1, respectively. […] These DNAs were used to produce proteins as described in the Materials and Methods. Proteins were transferred to a well of the 4 spot peptide-coated and BSA blocked ECL plates. The binding assay (using Sulfo-TAG labeled streptavidin as a detection agent) was carried our according to the procedures described in Example 11."}, "[4]": {"target": "T4, EGFR-pY992 (SEQ ID NO: 5) (Homo sapiens, UniProt P00533)", "T4 construct": "phosphotyrosine at Tyr992 (chemical modification); purchased New England Peptide, Fitchburg Mass; host or cells: chemical synthesis", "test": "Single-well 4-spot assay for multiple peptide-protein interactions", "assay_type": "binding", "settings": "4-spot plate", "from_the_text": "as §1, §2"}, "EGFR": {"target": "T5, EGFR (Homo sapiens, UniProt P00533)", "T5 construct": "autophosphorylated tyrosines (self-phosphorylated with ATP before use); purchased Sigma Chemical Co, MO", "test": "EGFR binding assay, bound EGFR detected with TAG labeled anti-EGFR"}},
  "data": [
    {"molecule": "B1", "values": [
      {"measurement": "ECL signal, spot 1 IkBa-24pp", "setting": "IkBa-24pp (SEQ ID NO: 1); 4-spot plate", "result": 5040},
      {"measurement": "fold higher ECL signal from spot 1 than with TnT mixtures containing no exogenous DNA", "setting": "IkBa-24pp (SEQ ID NO: 1); spot 1 (IkBa-24pp-BSA conjugate)", "result": 100, "unit": "fold"},
      {"measurement": "ECL signal, spot 3 EGFR-pY1068", "setting": "[1]", "result": 24},
      {"measurement": "ECL signal, spot 2 EGFR-pY1148", "setting": "[2]", "result": 35},
      {"measurement": "Code (pattern of positive spots)", "setting": "[3]", "result": "A, C"},
      {"measurement": "Peptide determined from code", "setting": "[3]", "result": "IkBa-24ppC"},
      {"measurement": "ECL signal, spot A", "setting": "[3]", "result": 7791},
      {"measurement": "ECL signal, spot B", "setting": "[3]", "result": 105},
      {"measurement": "ECL signal, spot C", "setting": "[3]", "result": 8615},
      {"measurement": "ECL signal, spot D", "setting": "[3]", "result": 74}
    ]},
    {"molecule": "B2", "values": [
      {"measurement": "ECL signal, spot 3 EGFR-pY1068", "setting": "[1]", "result": 1485},
      {"measurement": "ECL signal, spot 2 EGFR-pY1148", "setting": "[2]", "result": 110},
      {"measurement": "ECL signal, spot 4 EGFR-pY992", "setting": "[4]", "result": 1404},
      {"measurement": "Code (pattern of positive spots)", "setting": "[3]", "result": "B, C, D"},
      {"measurement": "Peptide determined from code", "setting": "[3]", "result": "EGFR-pTyr992 & EGFR-pTyr1068"},
      {"measurement": "ECL signal, spot A", "setting": "[3]", "result": 239},
      {"measurement": "ECL signal, spot B", "setting": "[3]", "result": 2783},
      {"measurement": "ECL signal, spot C", "setting": "[3]", "result": 1550},
      {"measurement": "ECL signal, spot D", "setting": "[3]", "result": 3388},
      {"measurement": "ECL signal", "setting": "EGFR; +EGFR", "result": "30,389"},
      {"measurement": "ECL signal", "setting": "EGFR; no EGFR", "result": "2,271"}
    ]}
  ]
}
